Article PMC3218035, “Nuclear Exportin Receptor CAS Regulates the NPI-1–Mediated Nuclear Import of HIV-1 Vpr” (PLoS ONE, 2011)

T1: Qip1 392–537 C-terminal peptide mutant, GST cleaved (human, UniProt O00629 392-521)
T1 construct: also called Qip1 394–521 (methods); source: E. coli BL21 CodonPlus (DE3)-RIL, purified (Glutathione Sepharose 4FF), GST cleaved with PreScission protease
T1 sequence (looked up): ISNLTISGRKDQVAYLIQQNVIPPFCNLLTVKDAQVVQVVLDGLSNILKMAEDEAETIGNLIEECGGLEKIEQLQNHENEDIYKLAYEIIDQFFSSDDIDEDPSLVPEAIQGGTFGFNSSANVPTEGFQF

T2: Qip1 (importin α3), full-length, GST cleaved (human, UniProt O00629 1-521)
T2 construct: also called Qip1_(full); full-length Qip1; source: E. coli BL21 CodonPlus (DE3)-RIL, purified (Glutathione Sepharose 4FF), GST cleaved with PreScission protease
T2 sequence (looked up): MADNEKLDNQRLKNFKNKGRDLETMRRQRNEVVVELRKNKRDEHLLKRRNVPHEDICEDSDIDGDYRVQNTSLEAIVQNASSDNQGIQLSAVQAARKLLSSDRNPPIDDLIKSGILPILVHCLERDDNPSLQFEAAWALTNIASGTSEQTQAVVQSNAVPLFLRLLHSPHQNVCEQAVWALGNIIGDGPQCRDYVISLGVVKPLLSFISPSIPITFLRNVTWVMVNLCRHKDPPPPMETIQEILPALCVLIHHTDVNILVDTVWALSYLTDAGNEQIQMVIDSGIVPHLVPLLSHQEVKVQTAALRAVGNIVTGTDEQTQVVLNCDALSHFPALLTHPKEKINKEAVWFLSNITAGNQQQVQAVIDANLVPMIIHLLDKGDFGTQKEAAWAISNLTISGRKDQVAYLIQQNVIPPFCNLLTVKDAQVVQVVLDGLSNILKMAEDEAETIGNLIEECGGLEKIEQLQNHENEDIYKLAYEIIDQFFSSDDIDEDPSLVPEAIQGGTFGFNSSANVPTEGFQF

B1: GST-tagged-Vpr (natural protein)
chain: MEQAPEDQGPQREPYNEWTLELLEELKSEAVRHFPRIWLHNLGQHIYETYGDTWAGVEAIIRILQQLLFIHFRIGCRHSRIGVTRQRRARNGASRS
notes: also called GST-Vpr; source: E. coli, purified (GSH system, His-Trap column), dialyzed against transport buffer
B2: cellular apoptosis susceptibility (CAS) protein, recombinant (natural protein, UniProt P55060 1-971, looked up)
chain: MELSDANLQTLTEYLKKTLDPDPAIRRPAEKFLESVEGNQNYPLLLLTLLEKSQDNVIKVCASVTFKNYIKRNWRIVEDEPNKICEADRVAIKANIVHLMLSSPEQIQKQLSDAISIIGREDFPQKWPDLLTEMVNRFQSGDFHVINGVLRTAHSLFKRYRHEFKSNELWTEIKLVLDAFALPLTNLFKATIELCSTHANDASALRILFSSLILISKLFYSLNFQDLPEFFEDNMETWMNNFHTLLTLDNKLLQTDDEEEAGLLELLKSQICDNAALYAQKYDEEFQRYLPRFVTAIWNLLVTTGQEVKYDLLVSNAIQFLASVCERPHYKNLFEDQNTLTSICEKVIVPNMEFRAADEEAFEDNSEEYIRRDLEGSDIDTRRRAACDLVRGLCKFFEGPVTGIFSGYVNSMLQEYAKNPSVNWKHKDAAIYLVTSLASKAQTQKHGITQANELVNLTEFFVNHILPDLKSANVNEFPVLKADGIKYIMIFRNQVPKEHLLVSIPLLINHLQAESIVVHTYAAHALERLFTMRGPNNATLFTAAEIAPFVEILLTNLFKALTLPGSSENEYIMKAIMRSFSLLQEAIIPYIPTLITQLTQKLLAVSKNPSKPHFNHYMFEAICLSIRITCKANPAAVVNFEEALFLVFTEILQNDVQEFIPYVFQVMSLLLETHKNDIPSSYMALFPHLLQPVLWERTGNIPALVRLLQAFLERGSNTIASAAADKIPGLLGVFQKLIASKANDHQGFYLLNSIIEHMPPESVDQYRKQIFILLFQRLQNSKTTKFIKSFLVFINLYCIKYGALALQEIFDGIQPKMFGMVLEKIIIPEIQKVSGNVEKKICAVGITKLLTECPPMMDTEYTKLWTPLLQSLIGLFELPEDDTIPDEEHFIDIEDTPGYQTAFSQLAFAGKKEHDPVGQMVNNPKIHLAQSLHKLSTACPGRVPSMVSTSLNAEALQYLQGYLQAASVTLL
notes: also called CSE1L; source: E. coli BL21 CodonPlus (DE3)-RIL, purified (Glutathione Sepharose 4FF)

Assays:
[1] = molecular target: Rch1 (importin α1), full-length, GST cleaved (human), P52292; test: SPR; settings: remark: other sources report otherwise
[2] = molecular target: T3, Rch1 404–529 C-terminal peptide mutant, GST cleaved (human, UniProt P52292 404-529); test: SPR; settings: both partners purified
T3 construct: also called Rch1 C-terminal peptide; source: E. coli BL21 CodonPlus (DE3)-RIL, purified (Glutathione Sepharose 4FF), GST cleaved with PreScission protease

[3] = molecular target: T4, NPI-1 (importin α5), full-length, GST cleaved (human, UniProt P52294 1-538); test: SPR; settings: both partners purified
T4 construct: also called NPI-1_(full); full-length NPI-1; source: E. coli BL21 CodonPlus (DE3)-RIL, purified (Glutathione Sepharose 4FF), GST cleaved with PreScission protease
T4 sequence (P52294 whole entry): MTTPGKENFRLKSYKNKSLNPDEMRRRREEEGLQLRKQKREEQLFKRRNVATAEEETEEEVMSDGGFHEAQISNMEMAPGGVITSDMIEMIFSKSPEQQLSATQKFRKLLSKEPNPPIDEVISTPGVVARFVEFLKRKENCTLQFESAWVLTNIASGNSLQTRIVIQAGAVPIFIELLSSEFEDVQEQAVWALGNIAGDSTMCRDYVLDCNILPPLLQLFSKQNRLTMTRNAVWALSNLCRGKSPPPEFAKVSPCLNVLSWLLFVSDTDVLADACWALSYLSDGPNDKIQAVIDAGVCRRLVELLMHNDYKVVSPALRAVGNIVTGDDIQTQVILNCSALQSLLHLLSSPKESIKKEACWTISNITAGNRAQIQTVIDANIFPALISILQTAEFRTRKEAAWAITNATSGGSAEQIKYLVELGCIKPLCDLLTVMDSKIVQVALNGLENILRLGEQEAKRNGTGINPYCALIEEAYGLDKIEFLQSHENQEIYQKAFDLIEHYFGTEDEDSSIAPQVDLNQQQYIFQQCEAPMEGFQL

[4] = molecular target: T5, NPI-1 404–541 C-terminal peptide mutant, GST cleaved (human, UniProt P52294 404-538); test: SPR; settings: both partners purified
T5 construct: also called NPI-1 406–538 (methods); source: E. coli BL21 CodonPlus (DE3)-RIL, purified (Glutathione Sepharose 4FF), GST cleaved with PreScission protease
T5 sequence (P52294 404-538, change not shown): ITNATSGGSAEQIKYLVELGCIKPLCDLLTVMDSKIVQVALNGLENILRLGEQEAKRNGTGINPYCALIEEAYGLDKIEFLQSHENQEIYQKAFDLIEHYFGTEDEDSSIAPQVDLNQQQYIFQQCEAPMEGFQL

[5] = molecular target: T1, Qip1 392–537 C-terminal peptide mutant, …; test: SPR; settings: both partners purified
[6] = molecular target: T2, Qip1 (importin α3), full-length, GST …; test: SPR; settings: both partners purified
[7] = molecular target: T6, GST-tagged NPI-1 (importin α5), full-length (human, UniProt P52294 1-538); test: pull-down; settings: both partners purified
T6 construct: also called GST-NPI-1; SPR1; source: E. coli BL21 CodonPlus (DE3)-RIL, purified (Glutathione Sepharose 4FF)
T6 sequence (P52294 whole entry): as the sequence (P52294 whole entry) above

Row | Binder | Kd [1] | Kd [2] | Kd [3] | Kd [4] | Kd [5] | Kd [6] | mRFP-Vpr bound to GST-NPI-1 with CAS and Q69LRanGTP, fold of the sample without CAS [7]
1 | B1 | 8.9 µM | 4.3 µM | 7.4 µM | 6.7 µM | 6.5 µM | 6.8 µM | –
2 | B2 | – | – | – | – | – | – | 0.2 fold
